Assays:
hIRF7 promoter = experiment: NHR-promoter luciferase screen, hIRF7 promoter; format: cell-based, human; details: for Normalized Luc. act., normalized to control / Luc. act., normalized to lacZ: IRF7 promoter reporter; for Normalized Luc. act., normalized to control: HR without or with its ligand, relative to control; for Luc. act., normalized to lacZ: hormone receptor (HR) without or with its ligand; for hIRF7 promoter reporter activity: transcription factor +/- ligand, control = 1.00
How it was run: (§1)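 CV-1 cells were co-transfected with 50 ng NHR (homodimer or NHR/RXR heterodimer), 100 ng promoter-luciferase construct and 50 ng LacZ. Luciferase was normalized to LacZ and to a no-NHR/no-ligand control.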

hIFNg promoter = experiment: NHR-promoter luciferase screen, hIFNg promoter; format: cell-based, human; details: for Luc. act., normalized to lacZ / Normalized Luc. act., normalized to control: IFNg promoter, HR component without or with ligand; for hIFNg promoter reporter activity: transcription factor +/- ligand, control = 1.00
How it was run: as §1

mDio2 promoter = experiment: NHR-promoter luciferase screen, mDio2 promoter; format: cell-based, mouse; details: for Luc. act., normalized to lacZ / Normalized Luc. act., normalized to control: Dio2, HR component without or with its ligand; for mDio2 promoter reporter activity: transcription factor +/- ligand, control = 1.00
How it was run: as §1

mADRP promoter = experiment: NHR-promoter luciferase screen, mADRP promoter; format: cell-based, mouse; details: for Luc. act., normalized to lacZ / Normalized Luc. act., normalized to control: ADRP promoter, HR/ligand component; for mADRP promoter reporter activity: transcription factor +/- ligand, control = 1.00
How it was run: as §1

hPPARg2 promoter = experiment: NHR-promoter luciferase screen, hPPARg2 promoter; format: cell-based, human; details: for Luc. act., normalized to lacZ / Normalized Luc. act., normalized to control: PPARG2 promoter, hormone receptor with or without its ligand; for Normalized Luc. act., normalized to control: relative to control; for Results of assays of transcription factor (+/- ligand) with hPPARg2: Table 6d, luciferase activity relative to control (control = 1.00)
How it was run: as §1

SREBP1c promoter = experiment: NHR-promoter luciferase screen, SREBP1c promoter; format: cell-based, mouse; details: for Luc. act., normalized to lacZ / Normalized Luc. act., normalized to control: SREBP1c promoter, HR component without or with ligand; for mSREBP1-c promoter reporter activity: transcription factor +/- ligand, control = 1.00
How it was run: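 Values are luciferase activity normalised to LacZ (transfection control) and to a control lacking NHR or ligand. Read-out at 48 h in CV-1 cells carrying 100 ng promoter-reporter, 50 ng receptor (alone or with RXR) and 50 ng LacZ.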

B1: DAX-1: DAX1 (NR0B1), cDNA driver (protein, UniProt P51843 1-470, looked up)
Nuclear receptor subfamily 0 …: MAGENHQWQGSILYNMLMSAKQTRAAPEAPETRLVDQCWGCSCGDEPGVGREGLLGGRNVALLYRCCFCGKDHPRQGSILYSMLTSAKQTYAAPKAPEATLGPCWGCSCGSDPGVGRAGLPGGRPVALLYRCCFCGEDHPRQGSILYSLLTSSKQTHVAPAAPEARPGGAWWDRSYFAQRPGGKEALPGGRATALLYRCCFCGEDHPQQGSTLYCVPTSTNQAQAAPEERPRAPWWDTSSGALRPVALKSPQVVCEAASAGLLKTLRFVKYLPCFQVLPLDQQLVLVRNCWASLLMLELAQDRLQFETVEVSEPSMLQKILTTRRRETGGNEPLPVPTLQHHLAPPAEARKVPSASQVQAIKCFLSKCWSLNISTKEYAYLKGTVLFNPDVPGLQCVKYIQGLQWGTQQILSEHTRMTHQGPHDRFIELNSTLFLLRFINANVIAELFFRPIIGTVSMDDMMLEMLCTKI
Normalized Luc. act., normalized to control (hIRF7 promoter): 1.1
Luc. act., normalized to lacZ (hIRF7 promoter): 27.9
hIRF7 promoter reporter activity (hIRF7 promoter): 1.06
Luc. act., normalized to lacZ (hIFNg promoter): 24.7
Normalized Luc. act., normalized to control (hIFNg promoter): 1.6
hIFNg promoter reporter activity (hIFNg promoter): 1.55
Luc. act., normalized to lacZ (mDio2 promoter): 18.7
Normalized Luc. act., normalized to control (mDio2 promoter): 1.2
mDio2 promoter reporter activity (mDio2 promoter): 1.19
Luc. act., normalized to lacZ (mADRP promoter): 419.9
Normalized Luc. act., normalized to control (mADRP promoter): 0.8
mADRP promoter reporter activity (mADRP promoter): 0.84
Luc. act., normalized to lacZ (hPPARg2 promoter): 1.9
Normalized Luc. act., normalized to control (hPPARg2 promoter): 0.9
Results of assays of transcription factor (+/- ligand) with hPPARg2 (hPPARg2 promoter): 0.94
Luc. act., normalized to lacZ (SREBP1c promoter): 497.8
Normalized Luc. act., normalized to control (SREBP1c promoter): 1.5
mSREBP1-c promoter reporter activity (SREBP1c promoter): 1.55

B2: NR4a3: NR4a3 (NR4A3; NOR1), nuclear hormone receptor cDNA driver (protein, UniProt Q92570 1-626, looked up)
Nuclear receptor subfamily 4 …: MPCVQAQYSPSPPGSSYAAQTYSSEYTTEIMNPDYTKLTMDLGSTEITATATTSLPSISTFVEGYSSNYELKPSCVYQMQRPLIKVEEGRAPSYHHHHHHHHHHHHHHQQQHQQPSIPPASSPEDEVLPSTSMYFKQSPPSTPTTPAFPPQAGALWDEALPSAPGCIAPGPLLDPPMKAVPTVAGARFPLFHFKPSPPHPPAPSPAGGHHLGYDPTAAAALSLPLGAAAAAGSQAAALESHPYGLPLAKRAAPLAFPPLGLTPSPTASSLLGESPSLPSPPSRSSSSGEGTCAVCGDNAACQHYGVRTCEGCKGFFKRTVQKNAKYVCLANKNCPVDKRRRNRCQYCRFQKCLSVGMVKEVVRTDSLKGRRGRLPSKPKSPLQQEPSQPSPPSPPICMMNALVRALTDSTPRDLDYSRYCPTDQAAAGTDAEHVQQFYNLLTASIDVSRSWAEKIPGFTDLPKEDQTLLIESAFLELFVLRLSIRSNTAEDKFVFCNGLVLHRLQCLRGFGEWLDSIKDFSLNLQSLNLDIQALACLSALSMITERHGLKEPKRVEELCNKITSSLKDHQSKGQALEPTESKVLGALVELRKICTLGLQRIFYLKLEDLVSPPSIIDKLFLDTLPF
Normalized Luc. act., normalized to control (hIRF7 promoter): 0.9
Luc. act., normalized to lacZ (hIRF7 promoter): 24.9
hIRF7 promoter reporter activity (hIRF7 promoter): 0.95
Luc. act., normalized to lacZ (hIFNg promoter): 16.4
Normalized Luc. act., normalized to control (hIFNg promoter): 1.0
hIFNg promoter reporter activity (hIFNg promoter): 1.03
Luc. act., normalized to lacZ (mDio2 promoter): 14.8
Normalized Luc. act., normalized to control (mDio2 promoter): 0.9
mDio2 promoter reporter activity (mDio2 promoter): 0.94
Luc. act., normalized to lacZ (mADRP promoter): 351.6
Normalized Luc. act., normalized to control (mADRP promoter): 0.7
mADRP promoter reporter activity (mADRP promoter): 0.71
Luc. act., normalized to lacZ (hPPARg2 promoter): 1.1
Normalized Luc. act., normalized to control (hPPARg2 promoter): 0.6
Results of assays of transcription factor (+/- ligand) with hPPARg2 (hPPARg2 promoter): 0.57
Luc. act., normalized to lacZ (SREBP1c promoter): 358.6
Normalized Luc. act., normalized to control (SREBP1c promoter): 1.1
mSREBP1-c promoter reporter activity (SREBP1c promoter): 1.11

B3: GCNF: Germ Cell Nuclear Factor (NR6A1, GCNF1), cDNA driver (protein, UniProt Q15406 1-480, looked up)
Nuclear receptor subfamily 6 …: MERDEPPPSGGGGGGGSAGFLEPPAALPPPPRNGFCQDELAELDPGTISVSDDRAEQRTCLICGDRATGLHYGIISCEGCKGFFKRSICNKRVYRCSRDKNCVMSRKQRNRCQYCRLLKCLQMGMNRKAIREDGMPGGRNKSIGPVQISEEEIERIMSGQEFEEEANHWSNHGDSDHSSPGNRASESNQPSPGSTLSSSRSVELNGFMAFREQYMGMSVPPHYQYIPHLFSYSGHSPLLPQQARSLDPQSYSLIHQLLSAEDLEPLGTPMLIEDGYAVTQAELFALLCRLADELLFRQIAWIKKLPFFCELSIKDYTCLLSSTWQELILLSSLTVYSKQIFGELADVTAKYSPSDEELHRFSDEGMEVIERLIYLYHKFHQLKVSNEEYACMKAINFLNQDIRGLTSASQLEQLNKRYWYICQDFTEYKYTHQPNRFPDLMMCLPEIRYIAGKMVNVPLEQLPLLFKVVLHSCKTSVGKE
Normalized Luc. act., normalized to control (hIRF7 promoter): 1.1
Luc. act., normalized to lacZ (hIRF7 promoter): 28.4
hIRF7 promoter reporter activity (hIRF7 promoter): 1.08
Luc. act., normalized to lacZ (hIFNg promoter): 18.4
Normalized Luc. act., normalized to control (hIFNg promoter): 1.2
hIFNg promoter reporter activity (hIFNg promoter): 1.15
Luc. act., normalized to lacZ (mDio2 promoter): 22.7
Normalized Luc. act., normalized to control (mDio2 promoter): 1.4
mDio2 promoter reporter activity (mDio2 promoter): 1.44
Luc. act., normalized to lacZ (mADRP promoter): 523.7
Normalized Luc. act., normalized to control (mADRP promoter): 1.1
mADRP promoter reporter activity (mADRP promoter): 1.05
Luc. act., normalized to lacZ (hPPARg2 promoter): 1.4
Normalized Luc. act., normalized to control (hPPARg2 promoter): 0.7
Results of assays of transcription factor (+/- ligand) with hPPARg2 (hPPARg2 promoter): 0.69
Luc. act., normalized to lacZ (SREBP1c promoter): 368.2
Normalized Luc. act., normalized to control (SREBP1c promoter): 1.1
mSREBP1-c promoter reporter activity (SREBP1c promoter): 1.14

B4: SHP: Small Heterodimer Partner (NR0B2), cDNA driver (protein, UniProt Q15466 1-257, looked up)
Nuclear receptor subfamily 0 …: MSTSQPGACPCQGAASRPAILYALLSSSLKAVPRPRSRCLCRQHRPVQLCAPHRTCREALDVLAKTVAFLRNLPSFWQLPPQDQRRLLQGCWGPLFLLGLAQDAVTFEVAEAPVPSILKKILLEEPSSSGGSGQLPDRPQPSLAAVQWLQCCLESFWSLELSPKEYACLKGTILFNPDVPGLQAASHIGHLQQEAHWVLCEVLEPWCPAAQGRLTRVLLTASTLKSIPTSLLGDLFFRPIIGDVDIAGLLGDMLLLR
Normalized Luc. act., normalized to control (hIRF7 promoter): 1.1
Luc. act., normalized to lacZ (hIRF7 promoter): 29.1
hIRF7 promoter reporter activity (hIRF7 promoter): 1.10
Luc. act., normalized to lacZ (hIFNg promoter): 16.0
Normalized Luc. act., normalized to control (hIFNg promoter): 1.0
hIFNg promoter reporter activity (hIFNg promoter): 1.01
Luc. act., normalized to lacZ (mDio2 promoter): 18.4
Normalized Luc. act., normalized to control (mDio2 promoter): 1.2
mDio2 promoter reporter activity (mDio2 promoter): 1.17
Luc. act., normalized to lacZ (mADRP promoter): 421.4
Normalized Luc. act., normalized to control (mADRP promoter): 0.8
mADRP promoter reporter activity (mADRP promoter): 0.85
Luc. act., normalized to lacZ (hPPARg2 promoter): 1.9
Normalized Luc. act., normalized to control (hPPARg2 promoter): 0.9
Results of assays of transcription factor (+/- ligand) with hPPARg2 (hPPARg2 promoter): 0.93
Luc. act., normalized to lacZ (SREBP1c promoter): 350.6
Normalized Luc. act., normalized to control (SREBP1c promoter): 1.1
mSREBP1-c promoter reporter activity (SREBP1c promoter): 1.09
